± gives the uncertainty stated by the source.
test: protein stability index of a GFP-peptide fusion (yeast GPS) (PSI 1-4); higher = more stable; sorted into four equal gates, so the index is relative within each strain; conditions: pdr5∆
Procedure, shortened: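 The protein stability index of a peptide was calculated by multiplying its read frequency in each gate by that gate's number and adding the products. The peptides were tiled 17-residue stretches of yeast proteins, fused downstream of GFP on a Cherry-expressing plasmid and carried in yeast as a pooled library. Mid-log cultures in leucine-free medium were sorted into four equal gates by GFP/Cherry ratio, and each gate's plasmids were PCR-amplified and Illumina-sequenced.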

Row | Sequence | protein stability index
1 | PSFTFGGSTTNNTTTTS [YOR098C/NUP1] | 3.19 ± 0.091
2 | PSHEKLKESYSQKHNGR [CDC53] | 3.13 ± 0.071

same assay, conditions: san1∆

Row | Sequence | protein stability index
3 | NVEESVSKADILLSHHR [POP5] | 2.91 ± 0.086
4 | NVFNDTPRGNHWMGSSV [YMR129W/POM152] | 2.98 ± 0.075
5 | NVGTNTYRLGEWSKISV [POP1] | 2.69 ± 0.097
6 | NVKELWTEKKGKNVINR [SMD2] | 3.54 ± 0.18
7 | NVLKAPFIKSESKPFSS [SIR4] | 2.6 ± 0.064
8 | NVMLNIYPRTVIDIEIH [SKI6] | 1.58 ± 0.11
9 | NVNLDDYPDDSGWTPFH [NAS6] | 2.92 ± 0.061
10 | NVRSSVLQKVIEWAEHH [SKP1] | 2.4 ± 0.085
11 | NVRVGQAVETVGQAGRP [RPN1] | 3.19 ± 0.072
12 | NVSDEQLSNWQKIRNSE [ITC1] | 2.94 ± 0.1
13 | NVSENQPWQMDTNNEAD [SNF12] | 3.17 ± 0.042
14 | NVTIAQGGVLPNIHQNL [HTA1] | 1.36 ± 0.066
15 | NVTTILDEIFSGCDSTK [ECM29] | 2.48 ± 0.073
16 | NVVEADLKRFVDESLLS [QCR2] | 3.26 ± 0.055
17 | NYGIVELDPECQLQNSD [RRP43] | 2.93 ± 0.054
18 | NYQYKIQELRKLLKSLL [MED7] | 2.28 ± 0.22
19 | PAAANLDALVDCENFFN [YJL039C/NUP192] | 2.64 ± 0.057
20 | PADRPQGRRNSRNFSTR [SIR4] | 3.1 ± 0.071
21 | PAKIVNFEKPKNSSQLL [RPN5] | 3.21 ± 0.052
22 | PAKPALSFGTATSDNKT [YJL041W/NSP1] | 2.93 ± 0.097
23 | PAKVAEEGINKFKKEKF [SRP54] | 3.38 ± 0.046
24 | PALESSPVTGDNSPSED [SNF2] | 3.14 ± 0.069
25 | PANVLLVQSLNDMVLEL [NNF1] | 2.83 ± 0.13
26 | PASKHDKEVVYFDEWTI [RPC34] | 3.04 ± 0.056
27 | PATTSQMAKDVTTFLNW [CYT1] | 2.84 ± 0.15
28 | PCLRKYEEFRDVAIENN [RRP43] | 2.9 ± 0.041

Row | Sequence | protein stability index
29 | PDDDKIVPLTEGDIQVL [RPT1] | 2.7 ± 0.07
30 | PDDMVEINSVGNPGLPQ [ITC1] | 3.05 ± 0.072
31 | PDEAIEKVFNAYPAARE [FAS1] | 3.11 ± 0.059
32 | PDISRAVINIRDDGKRE [RPO31] | 2.74 ± 0.11
33 | PDKLLGVILMFAAILVL [COB] | 1.66 ± 0.12
34 | PDSNHLSSETGIKLALD [SRB4] | 3.33 ± 0.058
35 | PDVLLSRVINVVRAASS [RRP6] | 1.44 ± 0.12
36 | PEDPYFNTLVRIMSTRC [DIS3] | 2.56 ± 0.052
37 | PEGYKAKSISTSAKEPS [RPO31] | 1.45 ± 0.19
38 | PELNVSLNLTDDVISNA [MCD1] | 3.1 ± 0.036
39 | PEVSMIRDIREKELKIF [RPB2] | 3.38 ± 0.075
40 | PFKRKMLLVDIIPSRMG [REC8] | 2.26 ± 0.11
41 | PFNQGSKQDVEALIEFI [FAS2] | 3.01 ± 0.079
42 | PFSLTYVRTEETDGKHG [YMR129W/POM152] | 3 ± 0.074
43 | PGEFVTAIAHSIREQVH [SNF5] | 1.94 ± 0.054
44 | PGGILRAQHVKKLATRP [RPL34A] | 3.37 ± 0.16
45 | PGRKYTTLGKLSTSVGW [RPL16A] | 2.2 ± 0.23
46 | PHATATEKEPVPAVVDD [SNF6] | 2.82 ± 0.14
47 | PHIIAVACLFITISIHG [SSN8] | 1.34 ± 0.11
48 | PHNSKSLGFLQQSNKLH [RPN3] | 3.1 ± 0.053
49 | PIKADKDYSQILKEEFP [RPN5] | 2.18 ± 0.13
50 | PIKNRTSKSFSKLLYDD [SIN4] | 2.22 ± 0.086
51 | PIPFEFQAVIQKSINHP [SNF2] | 2.37 ± 0.077
52 | PIPSKPTLFDLAFNYIT [SRP68] | 1.74 ± 0.071
53 | PIPVQGEIEIKPNEEEE [RPN13] | 2.58 ± 0.15
54 | PKALRFDRLVAGQIPTG [FAS2] | 2.59 ± 0.25

Row | Sequence | protein stability index
55 | PKCHSRENVFFQSQQRR [RPB9] | 2.22 ± 0.089
56 | PKDFSPNFTGIDKLMLS [SSN2] | 1.85 ± 0.27
57 | PKKALKVKAGVRSANED [RRP43] | 2.81 ± 0.069
58 | PKKHLSETADETLENNI [RPN11] | 3.17 ± 0.077
59 | PKMQWSLQDNSAAINNE [RPN4] | 2.96 ± 0.048
60 | PKNKLVPTLEAKRDYII [FAS1] | 2.63 ± 0.098
61 | PKVKEIKTVVLVPQLGH [PRP8] | 1.94 ± 0.14
62 | PKVPVSAAATPSLNKTI [GAL11] | 2.67 ± 0.035
63 | PLDEIPVDVDFNLDLDD [REC8] | 2.24 ± 0.088
64 | PLDRLENVLAIGIAGAH [SKI6] | 1.54 ± 0.18
65 | PLDSKDENFASVSPAGP [SNF2] | 3.15 ± 0.071
66 | PLFIVEDDESLGHKELK [RPB2] | 2.77 ± 0.14
67 | PLHSGKTSLMDLLVIDS [SNU114] | 2.81 ± 0.1
68 | PLITRHCYPRQLCQITC [RRP46] | 1.92 ± 0.095
69 | PLIWQLLQSSIINKLIH [POP3] | 2.01 ± 0.096
70 | PLKLSGEGPFTVKFKHM [YMR129W/POM152] | 2.75 ± 0.086
71 | PLPLDLNVQVWHIEETG [ITC1] | 2.18 ± 0.089
72 | PLRGALATYGLTIDDLG [FAS2] | 2.19 ± 0.1
73 | PLVLLQQIPLLCYMAPM [POP3] | 1.85 ± 0.074
74 | PNCPRPNMSICIFGDAF [RPL1A] | 1.55 ± 0.2
75 | PNIADYITAKNNVVINF [PRP8] | 1.43 ± 0.28
76 | PNIFPNLTYYNEKLECI [ITC1] | 2.59 ± 0.056
77 | PNMSICIFGDAFDVDRA [RPL1A] | 1.78 ± 0.084
78 | PNSERETDHANTENNDP [IRR1] | 2.73 ± 0.045
79 | PNSERSGTPTLKKNIEP [YOR098C/NUP1] | 2.72 ± 0.24
80 | PNSNKTHTEQNNPPKPQ [SNF2] | 3.06 ± 0.069

Row | Sequence | protein stability index
81 | PPGLDALVKPETQFKLS [CDC53] | 3.07 ± 0.036
82 | PPLLVYKWTQGINNLSE [PRP8] | 3.29 ± 0.076
83 | PPPPPPPGYEIEELDNP [PRP8] | 3.04 ± 0.048
84 | PPPYVKFFTQSNLEKLP [MED7] | 2.41 ± 0.049
85 | PPTTSNLIIFLYKFNGW [YML103C/NUP188] | 2.32 ± 0.058
86 | PQALRVLRLKPGRKYTT [RPL16A] | 3.13 ± 0.046
87 | PQDLTFNAGSNPPSYQS [RPB7] | 3.1 ± 0.17
88 | PQIVVPDAQNELPKFIL [DIS3] | 2.92 ± 0.043
89 | PQLISDKFSPEDGLGPL [ARP7] | 2.6 ± 0.062
90 | PQQPMVKTKTIELIDYD [RET1] | 2.94 ± 0.075
91 | PQWKRHLEEYGYLIQVL [YCS4] | 2.02 ± 0.095
92 | PRDVIKGKDFEITAKEV [FAS1] | 3.24 ± 0.07
93 | PRFLNKQERSKQERLKE [PRP28] | 3.34 ± 0.11
94 | PRLGSIDRNLKCQTCQE [RPO21] | 2.18 ± 0.12
95 | PRLSHLSLTAVPSFLRP [GRR1] | 1.79 ± 0.074
96 | PRMASVFENYVKKTGEN [CDC53] | 3.54 ± 0.065
97 | PRRDGERKRKSVRGAIV [RPS6A] | 3.33 ± 0.072
98 | PRTLIGHRATVTDIAII [RPN14] | 3.29 ± 0.1
99 | PSDMVIPDHLAELIPEL [SNF12] | 2.88 ± 0.11
100 | PSEDVAAPKKTRKAVRP [RPL6B] | 2.93 ± 0.085
101 | PSFTDEQWITIESQMRD [PRP8] | 2.8 ± 0.069
102 | PSFTFGGSTTNNTTTTS [YOR098C/NUP1] | 3.08 ± 0.056
103 | PSHEKLKESYSQKHNGR [CDC53] | 2.94 ± 0.047

same assay, conditions: ubr1∆

Row | Sequence | protein stability index
104 | NVEESVSKADILLSHHR [POP5] | 3.03 ± 0.1

From the supplement of paper PMC9732359
